Results on 1 molecule are retold here after patent publication US20130089560A1.

The target in the assay is human BMPR1A, endogenous on human Saos2 cells (human) (UniProt P36894). The assay is described as follows: cell-based or functional assay.
UniProt P36894, sequence (P36894 24-532 limits assumed): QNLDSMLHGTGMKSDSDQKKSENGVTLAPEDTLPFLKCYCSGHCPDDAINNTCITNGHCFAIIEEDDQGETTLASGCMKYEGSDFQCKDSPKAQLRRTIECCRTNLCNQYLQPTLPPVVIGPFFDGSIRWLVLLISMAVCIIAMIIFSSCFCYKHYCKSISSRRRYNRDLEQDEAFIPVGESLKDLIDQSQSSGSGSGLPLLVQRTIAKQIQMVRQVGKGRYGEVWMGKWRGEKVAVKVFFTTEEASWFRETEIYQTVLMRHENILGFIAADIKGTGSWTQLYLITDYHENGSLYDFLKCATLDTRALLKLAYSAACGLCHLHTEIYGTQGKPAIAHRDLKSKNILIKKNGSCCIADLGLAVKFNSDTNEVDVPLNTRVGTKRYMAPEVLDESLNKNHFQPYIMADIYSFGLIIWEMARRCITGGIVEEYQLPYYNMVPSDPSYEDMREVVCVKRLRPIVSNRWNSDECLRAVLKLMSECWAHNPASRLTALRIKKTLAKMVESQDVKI

B1: anti-BMPR1A antibody 5M107 (antibody, part only; not given: light chain and constant regions, V domains shown, part only)
VH: EVQLQQSGPELVKPGTSVKISCKASGYSFTGYYMHWVKQSQVKSLEWIGRINPDNGGRTYNQIFKDKASLTVHKSSSTAYMELHSLTSDDSAVYYCTRERGQYGNYGGFSDWGQGTLVT
Consider B1, for which the Sp7 gene expression levels in Saos2 cells (qPCR, relative to control antibody) is 2.4 fold.
